Test results as given in patent publication US20150344570A1 (published 2015).

T1: FcγRIIa R (human, UniProt P12318 34-217)
T1 construct: extracellular domain; also called FcgRIIa R type; 2aR
T1 sequence (looked up): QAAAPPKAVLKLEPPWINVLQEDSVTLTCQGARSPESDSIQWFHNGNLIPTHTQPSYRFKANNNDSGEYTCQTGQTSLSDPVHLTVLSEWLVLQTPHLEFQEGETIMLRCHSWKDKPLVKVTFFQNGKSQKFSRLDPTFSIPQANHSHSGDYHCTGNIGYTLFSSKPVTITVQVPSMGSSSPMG


What follows are binders tested against T1, FcγRIIa R (assay: SPR (Biacore), captured antibody, FcγR as analyte; relative binding activity).

He/Con_2aR	Binder
141 % (GpH7-A5/GpH7-B3/GpL16-k0 = 100)	GpH7-A5/GpH7-B3 variant K326_03V/GpL16-k0 (antibody, human IgG1, kappa, also called He Ab K326_03V) heavy 1: not shown heavy 2: not shown light: DIVMTQSPLSLPVTPGEPASISCQASESLVHSNRNTYLHWYLQKPGQSPQLLIYKVSNRFSGVPDRFSGSGSGTDFTLKISRVEAEDVGVYYCSQNTHVPPTFGQGTKVEIERTVAAPSVFIFPPSDEQLKSGTASVVCLLNNFYPREAKVQWKVDNALQSGNSQESVTEQDSKDSTYSLSSTLTLSKADYEKHKVYACEVTHQGLSSPVTKSFNRGEC
104 % (GpH7-A5/GpH7-B3/GpL16-k0 = 100)	GpH7-A5/GpH7-B3 variant I336_18N/GpL16-k0 (antibody, human IgG1, kappa, also called He Ab I336_18N) heavy 1: not shown heavy 2: not shown light: DIVMTQSPLSLPVTPGEPASISCQASESLVHSNRNTYLHWYLQKPGQSPQLLIYKVSNRFSGVPDRFSGSGSGTDFTLKISRVEAEDVGVYYCSQNTHVPPTFGQGTKVEIERTVAAPSVFIFPPSDEQLKSGTASVVCLLNNFYPREAKVQWKVDNALQSGNSQESVTEQDSKDSTYSLSSTLTLSKADYEKHKVYACEVTHQGLSSPVTKSFNRGEC
137 % (GpH7-A5/GpH7-B3/GpL16-k0 = 100)	GpH7-A5/GpH7-B3 variant K326_08L/GpL16-k0 (antibody, human IgG1, kappa, also called He Ab K326_08L) heavy 1: not shown heavy 2: not shown light: DIVMTQSPLSLPVTPGEPASISCQASESLVHSNRNTYLHWYLQKPGQSPQLLIYKVSNRFSGVPDRFSGSGSGTDFTLKISRVEAEDVGVYYCSQNTHVPPTFGQGTKVEIERTVAAPSVFIFPPSDEQLKSGTASVVCLLNNFYPREAKVQWKVDNALQSGNSQESVTEQDSKDSTYSLSSTLTLSKADYEKHKVYACEVTHQGLSSPVTKSFNRGEC
105 % (GpH7-A5/GpH7-B3/GpL16-k0 = 100)	GpH7-A5/GpH7-B3 variant K334_02A/GpL16-k0 (antibody, human IgG1, kappa, also called He Ab K334_02A) heavy 1: not shown heavy 2: not shown light: DIVMTQSPLSLPVTPGEPASISCQASESLVHSNRNTYLHWYLQKPGQSPQLLIYKVSNRFSGVPDRFSGSGSGTDFTLKISRVEAEDVGVYYCSQNTHVPPTFGQGTKVEIERTVAAPSVFIFPPSDEQLKSGTASVVCLLNNFYPREAKVQWKVDNALQSGNSQESVTEQDSKDSTYSLSSTLTLSKADYEKHKVYACEVTHQGLSSPVTKSFNRGEC
103 % (GpH7-A5/GpH7-B3/GpL16-k0 = 100)	GpH7-A5/GpH7-B3 variant K326_12R/GpL16-k0 (antibody, human IgG1, kappa, also called He Ab K326_12R) heavy 1: not shown heavy 2: not shown light: DIVMTQSPLSLPVTPGEPASISCQASESLVHSNRNTYLHWYLQKPGQSPQLLIYKVSNRFSGVPDRFSGSGSGTDFTLKISRVEAEDVGVYYCSQNTHVPPTFGQGTKVEIERTVAAPSVFIFPPSDEQLKSGTASVVCLLNNFYPREAKVQWKVDNALQSGNSQESVTEQDSKDSTYSLSSTLTLSKADYEKHKVYACEVTHQGLSSPVTKSFNRGEC
105 % (GpH7-A5/GpH7-B3/GpL16-k0 = 100)	GpH7-A5/GpH7-B3 variant I332_14T/GpL16-k0 (antibody, human IgG1, kappa, also called He Ab I332_14T) heavy 1: not shown heavy 2: not shown light: DIVMTQSPLSLPVTPGEPASISCQASESLVHSNRNTYLHWYLQKPGQSPQLLIYKVSNRFSGVPDRFSGSGSGTDFTLKISRVEAEDVGVYYCSQNTHVPPTFGQGTKVEIERTVAAPSVFIFPPSDEQLKSGTASVVCLLNNFYPREAKVQWKVDNALQSGNSQESVTEQDSKDSTYSLSSTLTLSKADYEKHKVYACEVTHQGLSSPVTKSFNRGEC
105 % (GpH7-A5/GpH7-B3/GpL16-k0 = 100)	GpH7-A5/GpH7-B3 variant H268_12R/GpL16-k0 (antibody, human IgG1, kappa, also called He Ab H268_12R) heavy 1: not shown heavy 2: not shown light: DIVMTQSPLSLPVTPGEPASISCQASESLVHSNRNTYLHWYLQKPGQSPQLLIYKVSNRFSGVPDRFSGSGSGTDFTLKISRVEAEDVGVYYCSQNTHVPPTFGQGTKVEIERTVAAPSVFIFPPSDEQLKSGTASVVCLLNNFYPREAKVQWKVDNALQSGNSQESVTEQDSKDSTYSLSSTLTLSKADYEKHKVYACEVTHQGLSSPVTKSFNRGEC
110 % (GpH7-A5/GpH7-B3/GpL16-k0 = 100)	GpH7-A5/GpH7-B3 variant H268_15Y/GpL16-k0 (antibody, human IgG1, kappa, also called He Ab H268_15Y) heavy 1: not shown heavy 2: not shown light: DIVMTQSPLSLPVTPGEPASISCQASESLVHSNRNTYLHWYLQKPGQSPQLLIYKVSNRFSGVPDRFSGSGSGTDFTLKISRVEAEDVGVYYCSQNTHVPPTFGQGTKVEIERTVAAPSVFIFPPSDEQLKSGTASVVCLLNNFYPREAKVQWKVDNALQSGNSQESVTEQDSKDSTYSLSSTLTLSKADYEKHKVYACEVTHQGLSSPVTKSFNRGEC
113 % (GpH7-A5/GpH7-B3/GpL16-k0 = 100)	GpH7-A5/GpH7-B3 variant H268_20W/GpL16-k0 (antibody, human IgG1, kappa, also called He Ab H268_20W) heavy 1: not shown heavy 2: not shown light: DIVMTQSPLSLPVTPGEPASISCQASESLVHSNRNTYLHWYLQKPGQSPQLLIYKVSNRFSGVPDRFSGSGSGTDFTLKISRVEAEDVGVYYCSQNTHVPPTFGQGTKVEIERTVAAPSVFIFPPSDEQLKSGTASVVCLLNNFYPREAKVQWKVDNALQSGNSQESVTEQDSKDSTYSLSSTLTLSKADYEKHKVYACEVTHQGLSSPVTKSFNRGEC
131 % (GpH7-A5/GpH7-B3/GpL16-k0 = 100)	GpH7-A5/GpH7-B3 variant K326_20W/GpL16-k0 (antibody, human IgG1, kappa, also called He Ab K326_20W) heavy 1: not shown heavy 2: not shown light: DIVMTQSPLSLPVTPGEPASISCQASESLVHSNRNTYLHWYLQKPGQSPQLLIYKVSNRFSGVPDRFSGSGSGTDFTLKISRVEAEDVGVYYCSQNTHVPPTFGQGTKVEIERTVAAPSVFIFPPSDEQLKSGTASVVCLLNNFYPREAKVQWKVDNALQSGNSQESVTEQDSKDSTYSLSSTLTLSKADYEKHKVYACEVTHQGLSSPVTKSFNRGEC
106 % (GpH7-A5/GpH7-B3/GpL16-k0 = 100)	GpH7-A5/GpH7-B3 variant I336_06M/GpL16-k0 (antibody, human IgG1, kappa, also called He Ab I336_06M) heavy 1: not shown heavy 2: not shown light: DIVMTQSPLSLPVTPGEPASISCQASESLVHSNRNTYLHWYLQKPGQSPQLLIYKVSNRFSGVPDRFSGSGSGTDFTLKISRVEAEDVGVYYCSQNTHVPPTFGQGTKVEIERTVAAPSVFIFPPSDEQLKSGTASVVCLLNNFYPREAKVQWKVDNALQSGNSQESVTEQDSKDSTYSLSSTLTLSKADYEKHKVYACEVTHQGLSSPVTKSFNRGEC
